Experimental data: US20130164214A1

Biological target: HLA-DR (human)
Assay: cell-based or functional assay

B1: hL243γ4P (IMMU-114), humanized IgG4 anti-HLA-DR antibody (antibody, from a related filing, V domains shown)
VH: QVQLQQSGSELKKPGASVKVSCKASGFTFTNYGMNWVKQAPGQGLKWMGWINTYTREPTYADDFKGRFAFSLDTSVSTAYLQISSLKADDTAVYFCARDITAVVPTGFDYWGQGSLVTVSS
VL: DIQLTQSPSSLSASVGDRVTITCRASENIYSNLAWYRQKPGKAPKLLVFAASNLADGVPSRFSGSGSGTDYTFTISSLQPEDIATYYCQHFWTTPWAFGGGTKLQIKR
reduction of live mDC1 in human PBMCs after 3 days with antibody, flow cytometry: 59.2% | reduction of live mDC2 in human PBMCs after 3 days with antibody, flow cytometry: 85% | reduction of pDCs in human PBMCs, flow cytometry: 50%
